Tested on: PFEK-protease C-E-6XHIS zymogen
Sequence (chain, as listed by the source): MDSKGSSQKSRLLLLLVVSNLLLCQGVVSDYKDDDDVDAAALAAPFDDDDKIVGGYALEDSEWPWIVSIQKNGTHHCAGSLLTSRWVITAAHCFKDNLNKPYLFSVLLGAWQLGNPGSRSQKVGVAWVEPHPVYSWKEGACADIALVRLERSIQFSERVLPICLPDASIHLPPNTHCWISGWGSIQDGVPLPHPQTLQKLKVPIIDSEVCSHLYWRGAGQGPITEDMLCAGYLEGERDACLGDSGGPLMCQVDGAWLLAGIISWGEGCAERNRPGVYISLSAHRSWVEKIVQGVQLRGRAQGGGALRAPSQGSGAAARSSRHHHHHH

## enterokinase
  cleavage of the zymogen (SDS-PAGE and anti-FLAG Western blot): This demonstrates the quantitative cleavage of the expressed and purified zymogen to generate the processed and activated protease

— US20020164767
